Results: paper PMC3771910, “The Crystal Structure and RNA-Binding of an Orthomyxovirus Nucleoprotein” (PLoS Pathogens, 2013)

How the values were obtained:
[1] = target: ISAV-NP ΔC16 (aa 1–600) (infectious salmon anemia virus (ISAV)); assay: SEC; gel filtration chromatography (Superdex 200) of purified recombinant NP; size estimated against three protein standards
[2] = target: ISAV-NP ΔC16 (aa 1–600) (infectious salmon anemia virus (ISAV)); assay: negative-staining electron microscopy; NP mixed with 24-nt RNA at 2:1 protein:RNA molar ratio in 100 mM NaCl, 25 mM HEPES pH 7.5, 25°C 30 min, purified by gel filtration before use
[3] = target: the molecule itself; assay: SEC; gel filtration chromatography (Superdex 200) of purified recombinant NP; size estimated against three protein standards

In the case of “ISAV-NP ΔC16 (aa 1–600) (domain or fragment)”, the stoichiometry N [1] is reported as 2 and the stoichiometry N [2] is reported as 2.

B1: infectious salmon anemia virus nucleoprotein, full-length (aa 1–616) (natural protein)
chain: MADKGMTYSFDVRDNTLVVRRSTATKSGIKISYREDRGTSLLQKAFAGTEDEFWVELDQDVYVDKKIREFLVEEKMKDMSTRVSGAVAAAIERSVEFDNFSKEAAANIEMAGVDDEEAGGSGLVDNRRKNKGVSNMAYNLSLFIGMVFPALTTFFSAILSEGEMSIWQNGQAIMRILALADEDGKRQTRTGGQRVDMADVTKLNVVTANGKVKQVEVNLNDLKAAFRQSRPKRSDYRKGQGSKATESSISNQCMALIMKSVLSADQLFAPGVKMMRTNGFNASYTTLAEGANIPSKYLRHMRNCGGVALDLMGMKRIKNSPEGAKSKIFSIIQKKVRGRCRTEEQRLLTSALKISDGENKFQRIMDTLCTSFLIDPPRTTKCFIPPISSLMMYIQEGNSVLAMDFMKNGEDACKICREAKLKVGVNSTFTMSVARTCVAVSMVATAFCSADIIENAVPGSERYRSNIKANTTKPKKDSTYTIQGLRLSNVRYEARPETSQSNTDRSWQVNVTDSFGGLAVFNQGAIREMLGDGTSETTSVNVRALVKRILKSASERSARAVKTFMVGEQGKSAIVISGVGLFSIDFEGVEEAERITDMTPEIEFDEDDEEEEDIDI
notes: Nucleoprotein (NP) of infectious salmon anemia virus (ISAV), aa 1-616; Dimer in solution; also called ISAV-NP; wt NP; source: E. coli Rosetta 2 (DE3), purified (HisTrap HP, HiTrap Heparin HP, Superdex 200)
B1 was tested, and the “stoichiometry N” value [3] was 2.
